{
  "source": "paper PMC12881670",
  "about": "“Investigation into ligand selectivity and bias at the formyl peptide receptor family” (The Journal of Pharmacology and Experimental Therapeutics, 2025)",
  "key": {"[1]": {"target": "T1, FLAG-tagged mouse Fpr2 (Mm_Fpr2) (mouse, UniProt O88536 1-351)", "T1 sequence (looked up)": "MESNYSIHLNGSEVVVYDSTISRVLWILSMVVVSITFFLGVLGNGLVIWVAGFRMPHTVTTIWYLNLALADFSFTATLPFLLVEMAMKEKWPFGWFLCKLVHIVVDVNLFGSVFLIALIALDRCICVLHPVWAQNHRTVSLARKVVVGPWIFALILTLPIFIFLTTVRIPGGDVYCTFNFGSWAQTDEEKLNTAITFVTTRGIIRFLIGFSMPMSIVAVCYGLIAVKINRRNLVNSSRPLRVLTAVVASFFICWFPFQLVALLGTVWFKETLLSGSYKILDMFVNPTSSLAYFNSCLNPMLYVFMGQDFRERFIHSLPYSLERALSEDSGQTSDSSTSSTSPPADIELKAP"}, "[2]": {"target": "T1, FLAG-tagged mouse Fpr2 (Mm_Fpr2)", "remark": "listed apart in the source"}, "[3]": {"target": "T2, FLAG-tagged human FPR2 (Hs_FPR2) (human, UniProt P25090 1-351)", "T2 sequence (looked up)": "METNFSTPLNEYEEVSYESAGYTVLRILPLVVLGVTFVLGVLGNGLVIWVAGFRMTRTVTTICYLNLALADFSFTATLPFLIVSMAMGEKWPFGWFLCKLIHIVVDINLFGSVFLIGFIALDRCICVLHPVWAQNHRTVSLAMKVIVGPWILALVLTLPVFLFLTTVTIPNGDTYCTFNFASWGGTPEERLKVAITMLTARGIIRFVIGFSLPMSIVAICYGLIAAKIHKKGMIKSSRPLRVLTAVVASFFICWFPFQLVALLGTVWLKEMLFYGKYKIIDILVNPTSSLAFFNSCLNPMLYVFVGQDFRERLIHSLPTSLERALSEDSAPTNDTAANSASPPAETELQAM", "test": "cell-based or functional assay"}, "[4]": {"target": "T3, FLAG-Hs_FPR2 C-terminally fused to Renilla Luciferase 8 (human, UniProt P25090 1-351)", "T3 sequence (looked up)": "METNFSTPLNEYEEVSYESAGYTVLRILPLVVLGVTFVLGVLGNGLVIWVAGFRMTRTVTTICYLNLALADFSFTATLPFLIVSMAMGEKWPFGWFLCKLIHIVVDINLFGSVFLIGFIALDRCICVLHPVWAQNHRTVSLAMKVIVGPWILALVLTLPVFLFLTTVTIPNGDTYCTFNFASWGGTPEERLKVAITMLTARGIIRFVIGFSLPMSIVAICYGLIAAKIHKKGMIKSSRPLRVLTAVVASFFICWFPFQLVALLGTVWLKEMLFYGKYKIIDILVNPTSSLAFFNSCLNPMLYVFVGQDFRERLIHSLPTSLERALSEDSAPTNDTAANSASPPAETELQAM", "test": "cell-based or functional assay"}, "[5]": {"target": "T4, FLAG-Mm_Fpr2 C-terminally fused to Renilla Luciferase 8 (mouse, UniProt O88536 1-351)", "T4 sequence (looked up)": "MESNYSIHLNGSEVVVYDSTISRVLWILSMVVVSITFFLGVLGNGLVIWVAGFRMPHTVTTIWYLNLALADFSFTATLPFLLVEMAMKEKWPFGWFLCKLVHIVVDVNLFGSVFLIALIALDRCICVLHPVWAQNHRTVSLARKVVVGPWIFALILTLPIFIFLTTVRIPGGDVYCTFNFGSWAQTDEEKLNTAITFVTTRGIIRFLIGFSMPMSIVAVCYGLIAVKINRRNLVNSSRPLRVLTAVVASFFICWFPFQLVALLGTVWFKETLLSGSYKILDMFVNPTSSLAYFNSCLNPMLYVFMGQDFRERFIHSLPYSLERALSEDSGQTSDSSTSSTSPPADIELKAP", "test": "cell-based or functional assay"}, "[6]": {"target": "T2, FLAG-tagged human FPR2 (Hs_FPR2)", "test": "cell-based or functional assay", "remark": "listed apart in the source"}, "[7]": {"target": "T5, FLAG-tagged mouse Fpr1 (Mm_Fpr1) (mouse, UniProt P33766 1-364)", "T5 sequence (looked up)": "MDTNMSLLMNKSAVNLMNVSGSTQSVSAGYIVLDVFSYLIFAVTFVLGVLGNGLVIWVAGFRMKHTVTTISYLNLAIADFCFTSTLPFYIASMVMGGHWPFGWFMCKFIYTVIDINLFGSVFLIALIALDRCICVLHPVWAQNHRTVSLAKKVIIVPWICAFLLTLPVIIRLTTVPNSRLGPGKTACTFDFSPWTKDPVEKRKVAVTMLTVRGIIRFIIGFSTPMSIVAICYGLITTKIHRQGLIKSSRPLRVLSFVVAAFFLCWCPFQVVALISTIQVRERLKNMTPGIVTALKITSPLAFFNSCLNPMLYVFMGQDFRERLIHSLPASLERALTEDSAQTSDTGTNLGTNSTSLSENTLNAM", "test": "cell-based or functional assay"}, "[8]": {"target": "T6, FLAG-Mm_Fpr1 C-terminally fused to Renilla Luciferase 8 (mouse, UniProt P33766 1-364)", "T6 sequence (looked up)": "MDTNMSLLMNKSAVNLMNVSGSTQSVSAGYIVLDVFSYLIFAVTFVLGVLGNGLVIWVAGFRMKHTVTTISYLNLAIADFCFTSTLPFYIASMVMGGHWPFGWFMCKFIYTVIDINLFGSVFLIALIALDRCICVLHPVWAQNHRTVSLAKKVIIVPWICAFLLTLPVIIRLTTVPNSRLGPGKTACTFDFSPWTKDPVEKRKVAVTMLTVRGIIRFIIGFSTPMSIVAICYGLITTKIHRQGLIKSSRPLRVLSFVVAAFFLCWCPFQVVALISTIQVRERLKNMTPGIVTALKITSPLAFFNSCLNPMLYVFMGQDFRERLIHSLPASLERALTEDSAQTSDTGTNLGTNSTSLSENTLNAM", "test": "cell-based or functional assay"}, "[9]": {"target": "T3, FLAG-Hs_FPR2 C-terminally fused to …", "test": "cell-based or functional assay", "remark": "listed apart in the source"}, "[10]": {"target": "T4, FLAG-Mm_Fpr2 C-terminally fused to …", "test": "cell-based or functional assay", "remark": "listed apart in the source"}},
  "note": "Where no end group is shown, it is not given here. The star is where a group is joined. For = O=C*",
  "data": [
    {"binder": "For-MTPMRKINPLMKLIN", "note": "[MCT-2 (Formyl-… from Cytochrome b)]", "values": [
      {"measurement": "receptor internalization (flow cytometry): Emax (% of 1 μM WKYMVm)", "setting": "[1]", "result": 43.9, "unit": "%"},
      {"measurement": "receptor internalization (flow cytometry): Log EC50 (M)", "setting": "[1]", "result": -8.24, "unit": "log M"},
      {"measurement": "ERK1/2 phosphorylation (Western blot): Emax (% of 1 μM WKYMVm)", "setting": "[2]", "result": 169, "unit": "%"},
      {"measurement": "ERK1/2 phosphorylation (Western blot): Log EC50 (M)", "setting": "[2]", "result": -6.96, "unit": "log M"}
    ]},
    {"binder": "For-MTPMRKINPLMKLIN", "note": "[MCT-2 (Formyl-MTPMRKINPLMKLIN from Cytochrome b)]", "values": [
      {"measurement": "ERK1/2 phosphorylation (Western blot): Emax (% of 1 μM WKYMVm)", "setting": "[3]", "result": 93.9, "unit": "%"},
      {"measurement": "ERK1/2 phosphorylation (Western blot): Log EC50 (M)", "setting": "[3]", "result": -6.72, "unit": "log M"},
      {"measurement": "BRET of receptor-RLuc8 with Arrestin 3-YFP: Emax (% of 1 μM WKYMVm)", "setting": "[4]", "result": 51.8, "unit": "%"},
      {"measurement": "BRET of receptor-RLuc8 with Arrestin 3-YFP: Log EC50 (M)", "setting": "[4]", "result": -6.06, "unit": "log M"},
      {"measurement": "BRET of receptor-RLuc8 with Arrestin 3-YFP: Emax (% of 1 μM WKYMVm)", "setting": "[5]", "result": 12.1, "unit": "%"},
      {"measurement": "BRET of receptor-RLuc8 with Arrestin 3-YFP: Log EC50 (M)", "setting": "[5]", "result": -10.3, "unit": "log M"},
      {"measurement": "receptor internalization (flow cytometry): Emax (% of 1 μM WKYMVm)", "setting": "[6]", "result": 63.3, "unit": "%"},
      {"measurement": "receptor internalization (flow cytometry): Log EC50 (M)", "setting": "[6]", "result": -6.87, "unit": "log M"},
      {"measurement": "receptor internalization (flow cytometry): Emax (% of 1 μM WKYMVm)", "setting": "[7]", "result": 7.39, "unit": "%"},
      {"measurement": "receptor internalization (flow cytometry): Log EC50 (M)", "setting": "[7]", "result": -7.24, "unit": "log M"},
      {"measurement": "BRET of receptor-RLuc8 with Venus-mGsi: Emax (% of 1 μM WKYMVm)", "setting": "[8]", "result": -8.19, "unit": "%"},
      {"measurement": "BRET of receptor-RLuc8 with Venus-mGsi: Log EC50 (M)", "setting": "[8]", "result": -7.78, "unit": "log M"},
      {"measurement": "BRET of receptor-RLuc8 with Venus-mGsi: Emax (% of 1 μM WKYMVm)", "setting": "[9]", "result": 44.4, "unit": "%"},
      {"measurement": "BRET of receptor-RLuc8 with Venus-mGsi: Log EC50 (M)", "setting": "[9]", "result": -6.23, "unit": "log M"},
      {"measurement": "BRET of receptor-RLuc8 with Venus-mGsi: Emax (% of 1 μM WKYMVm)", "setting": "[10]", "result": 25, "unit": "%"},
      {"measurement": "BRET of receptor-RLuc8 with Venus-mGsi: Log EC50 (M)", "setting": "[10]", "result": -4.77, "unit": "log M"}
    ]}
  ]
}
